Our source for the Km values is PMC8123127, “Structural Bases for the Synergistic Inhibition of Human Thymidylate Synthase and Ovarian Cancer Cell Growth by Drug Combinations” (Cancers, 2021).

Substrate in data set [1]: Nc1nc2c(c(=O)[nH]1)N1CN(c3ccc(C(=O)N[C@@H](CCC(=O)O)C(=O)O)cc3)CC1CN2
In words: purified protein. Conditions: dUMP cofactor site in the catalytic pocket; varied: cofactor.

Substrate in data set [2]: O=c1ccn([C@H]2C[C@H](O)[C@@H](COP(=O)(O)O)O2)c(=O)[nH]1
As to the kind of experiment: purified protein. The format is biochemical, Homo sapiens. The note with it: mTHF substrate site in the catalytic pocket.

B1: human thymidylate synthase (hTS) (Homo sapiens) (protein)
chain: MPVAGSELPRRPLPPAAQERDAEPRPPHGELQYLGQIQHILRCGVRKDDRTGTGTLSVFGMQARYSLRDEFPLLTTKRVFWKGVLEELLWFIKGSTNAKELSSKGVKIWDANGSRDFLDSLGFSTREEGDLGPVYGFQWRHFGAEYRDMESDYSGQGVDQLQRVIDTIKTNPDDRRIIMCAWNPRDLPLMALPPCHALCQFYVVNSELSCQLYQRSGDMGLGVPFNIASYALLTYMIAHITGLKPGDFIHTLGDAHIYLNHIEPLKIQLQREPRPFPKLRILRKVEKIDDFKAEDFQIEGYNPHPTIKMEMAV
notes: His6-tag protein (non-cleavable N-terminal His6-tag)
A word on the Km: it is the concentration of substrate that gives half-maximal velocity. For the protein B1, the values for the Km in the data set “purified protein [1]” and in “purified protein [2]” were 5 µM and 10 µM, respectively.
